Test results as given in IntAct's records for PubMed 18688255.

B1: Cleavage and polyadenylation specificity factor subunit 2 (Homo sapiens), Q9P2I0 (parent)
chain: MTSIIKLTTLSGVQEESALCYLLQVDEFRFLLDCGWDEHFSMDIIDSLRKHVHQIDAVLLSHPDPLHLGALPYAVGKLGLNCAIYATIPVYKMGQMFMYDLYQSRHNTEDFTLFTLDDVDAAFDKIQQLKFSQIVNLKGKGHGLSITPLPAGHMIGGTIWKIVKDGEEEIVYAVDFNHKREIHLNGCSLEMLSRPSLLITDSFNATYVQPRRKQRDEQLLTNVLETLRGDGNVLIAVDTAGRVLELAQLLDQIWRTKDAGLGVYSLALLNNVSYNVVEFSKSQVEWMSDKLMRCFEDKRNNPFQFRHLSLCHGLSDLARVPSPKVVLASQPDLECGFSRDLFIQWCQDPKNSIILTYRTTPGTLARFLIDNPSEKITEIELRKRVKLEGKELEEYLEKEKLKKEAAKKLEQSKEADIDSSDESDIEEDIDQPSAHKTKHDLMMKGEGSRKGSFFKQAKKSYPMFPAPEERIKWDEYGEIIKPEDFLVPELQATEEEKSKLESGLTNGDEPMDQDLSDVPTKCISTTESIEIKARVTYIDYEGRSDGDSIKKIINQMKPRQLIIVHGPPEASQDLAECCRAFGGKDIKVYMPKLHETVDATSETHIYQVRLKDSLVSSLQFCKAKDAELAWIDGVLDMRVSKVDTGVILEEGELKDDGEDSEMQVEAPSDSSVIAQQKAMKSLFGDDEKETGEESEIIPTLEPLPPHEVPGHQSVFMNEPRLSDFKQVLLREGIQAEFVGGVLVCNNQVAVRRTETGRIGLEGCLCQDFYRIRDLLYEQYAIV
partner: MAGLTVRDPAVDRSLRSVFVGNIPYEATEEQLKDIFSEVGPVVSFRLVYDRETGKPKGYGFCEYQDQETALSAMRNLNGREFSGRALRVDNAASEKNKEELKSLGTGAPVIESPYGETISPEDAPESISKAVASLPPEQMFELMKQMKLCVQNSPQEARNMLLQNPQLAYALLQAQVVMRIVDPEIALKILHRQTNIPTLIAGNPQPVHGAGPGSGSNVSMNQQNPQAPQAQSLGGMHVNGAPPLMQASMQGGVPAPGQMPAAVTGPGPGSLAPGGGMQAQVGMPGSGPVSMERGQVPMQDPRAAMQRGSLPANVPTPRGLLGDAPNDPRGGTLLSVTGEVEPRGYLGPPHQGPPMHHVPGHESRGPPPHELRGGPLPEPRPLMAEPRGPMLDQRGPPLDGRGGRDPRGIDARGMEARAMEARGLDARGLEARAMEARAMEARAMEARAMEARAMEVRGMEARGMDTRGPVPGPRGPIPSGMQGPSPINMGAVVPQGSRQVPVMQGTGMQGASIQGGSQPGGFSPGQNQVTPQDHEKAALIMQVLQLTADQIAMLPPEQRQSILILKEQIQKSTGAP
B2: Cleavage and polyadenylation specificity factor subunit 2 (Homo sapiens), Q9P2I0 (parent)
chain: B1 chain
partner: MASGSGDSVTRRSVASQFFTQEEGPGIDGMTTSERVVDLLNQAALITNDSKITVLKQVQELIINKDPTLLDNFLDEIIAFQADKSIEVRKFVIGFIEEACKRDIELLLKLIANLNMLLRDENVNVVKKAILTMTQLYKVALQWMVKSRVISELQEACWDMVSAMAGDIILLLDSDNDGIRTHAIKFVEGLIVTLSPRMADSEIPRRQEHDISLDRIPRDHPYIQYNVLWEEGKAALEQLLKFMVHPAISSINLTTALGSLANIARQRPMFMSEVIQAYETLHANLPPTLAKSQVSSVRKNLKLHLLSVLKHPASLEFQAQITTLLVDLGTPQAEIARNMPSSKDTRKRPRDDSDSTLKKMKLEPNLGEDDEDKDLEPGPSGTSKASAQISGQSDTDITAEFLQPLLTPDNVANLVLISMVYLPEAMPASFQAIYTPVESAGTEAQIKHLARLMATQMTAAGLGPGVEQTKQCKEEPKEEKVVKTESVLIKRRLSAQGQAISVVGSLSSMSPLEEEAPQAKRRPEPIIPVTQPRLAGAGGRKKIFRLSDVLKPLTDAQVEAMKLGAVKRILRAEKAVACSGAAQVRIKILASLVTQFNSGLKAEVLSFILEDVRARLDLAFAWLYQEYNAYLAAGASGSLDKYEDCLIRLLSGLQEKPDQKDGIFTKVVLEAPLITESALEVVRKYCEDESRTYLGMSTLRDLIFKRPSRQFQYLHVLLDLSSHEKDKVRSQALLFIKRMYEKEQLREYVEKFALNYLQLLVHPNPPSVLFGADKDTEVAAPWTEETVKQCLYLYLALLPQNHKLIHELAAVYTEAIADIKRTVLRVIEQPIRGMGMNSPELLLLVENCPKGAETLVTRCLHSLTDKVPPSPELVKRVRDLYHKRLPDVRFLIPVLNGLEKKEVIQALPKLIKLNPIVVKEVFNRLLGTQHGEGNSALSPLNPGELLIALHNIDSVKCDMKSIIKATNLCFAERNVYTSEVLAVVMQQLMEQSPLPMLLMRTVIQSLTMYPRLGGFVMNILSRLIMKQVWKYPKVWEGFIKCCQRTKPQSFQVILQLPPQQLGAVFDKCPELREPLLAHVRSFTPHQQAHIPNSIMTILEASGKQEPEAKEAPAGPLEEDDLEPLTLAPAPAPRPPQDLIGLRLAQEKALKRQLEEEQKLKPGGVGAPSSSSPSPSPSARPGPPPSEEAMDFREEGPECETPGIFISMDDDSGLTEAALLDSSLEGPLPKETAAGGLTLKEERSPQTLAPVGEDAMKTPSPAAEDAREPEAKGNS

Variants of: B1
Settings: with cstf2_human CSTF2, P33240

effect of a mutation on the interaction	Variant
disrupting interaction	R543A

Variants of: B2
Settings: with sympk_human SYMPK

effect of a mutation on the interaction	Variant
decreasing interaction	H67A
